From article PMC6230950

Tests used:
[1] = target: human TB‐PIGS:ΔXF (Ag85B fused to a truncated human γ1 chain and the IgM μ tailpiece), produced in g (M. tuberculosis | human | not stated) (UniProt P9WQP1); assay: SPR; Biacore X100, HBS-EP+; TB-PIGS captured on protein A coupled to a CM5 chip; FcγR as analyte, 40 μL/min; affinity of one FcγR for a single arm
[2] = target: Human TB-PIGS produced in wild-type Nicotiana benthamiana (Ag85B - truncated human γ1 chain - IgM tailpiece) (Mycobacterium tuberculosis | human | not stated) (UniProt P9WQP1); assay: SPR; Biacore X100; protein A on a CM5 chip, IgG or TB-PIGS captured; five-six concentrations of human CD16a as analyte; HBS-EP+; 40 uL/min, contact 90 s, dissociation 300 s; two-state binding interaction model
[3] = target: Human TB-PIGS produced in glyco-engineered ΔXF Nicotiana benthamiana (Mycobacterium tuberculosis | human | not stated) (UniProt P9WQP1); assay: SPR; Biacore X100; protein A on a CM5 chip, IgG or TB-PIGS captured; human CD32a as analyte, 4000 nM to 125 nM in 2-fold dilutions; HBS-EP+; 40 uL/min, contact 90 s; steady-state affinity analysis
[4] = target: Human TB-PIGS produced in wild-type Nicotiana benthamiana (Ag85B - truncated human γ1 chain - IgM tailpiece) (Mycobacterium tuberculosis | human | not stated) (UniProt P9WQP1); assay: as above
[5] = target: human TB‐PIGS (Ag85B fused to a truncated human γ1 chain and the IgM μ tailpiece), produced in wild‐type N. benthamiana (M. tuberculosis | human | not stated) (UniProt P9WQP1); assay: native gel or EMSA
[6] = target: murine TB‐PIGS (Ag85B fused to a truncated mouse γ2a chain and the IgM μ tailpiece), produced in wil (M. tuberculosis | mouse | not stated) (UniProt P9WQP1); assay: native gel or EMSA
[7] = target: Murine TB-PIGS produced in glyco-engineered ΔXF Nicotiana benthamiana (Mycobacterium tuberculosis | mouse | not stated) (UniProt P9WQP1); assay: SPR; Biacore X100; protein A amine-coupled on a CM5 chip, IgG or TB-PIGS captured on it; CD64 (human or mouse) as analyte, 240 nM down to 1.875 nM in 1:2 dilutions; HBS-EP+; 40 uL/min, contact 135 s, dissociation 600 s; 1:1 model, but for human TB-PIGS from wild-type plants the 'Heterogeneous antibody with aglycosylation' model (two sets of values)
[8] = target: Murine TB-PIGS produced in wild-type Nicotiana benthamiana (Ag85B - truncated mouse γ2a chain - IgM tailpiece) (Mycobacterium tuberculosis | mouse | not stated) (UniProt P9WQP1); assay: as above

human CD16a (FcγRIIIa) (from UniProt P08637 17-208) (receptor)
Kd [1]: 19.7 nM | Kd [2]: 279 nM

human CD32a (FcγRIIa) (from UniProt P12318 34-217) (receptor)
Kd [3]: 2160 nM | Kd [4]: 4210 nM

human CD64 (FcγRI) (from UniProt P12314 16-292) (receptor)
Kd [1]: 0.41 nM

human TB‐PIGS (Ag85B fused to a truncated human γ1 chain and the IgM μ tailpiece), produced in wild‐type N. benthamiana (from UniProt P9WQP1 41-325) (Fc fusion)
percent of the sample as polymers [5]: 35 to 60%

murine TB‐PIGS (Ag85B fused to a truncated mouse γ2a chain and the IgM μ tailpiece), produced in wil (from UniProt P9WQP1 41-325) (Fc fusion)
percent of the sample as polymers [6]: 5 to 20%

B1: mouse CD64 (FcγRI) (receptor)
chain: EVVNATKAVITLQPPWVSIFQKENVTLWCEGPHLPGDSSTQWFINGTAVQISTPSYSIPEASFQDSGEYRCQIGSSMPSDPVQLQIHNDWLLLQASRRVLTEGEPLALRCHGWKNKLVYNVVFYRNGKSFQFSSDSEVAILKTNLSHSGIYHCSGTGRHRYTSAGVSITVKELFTTPVLRASVSSPFPEGSLVTLNCETNLLLQRPGLQLHFSFYVGSKILEYRNTSSEYHIARAEREDAGFYWCEVATEDSSVLKRSPELELQVLGPQSSAP
Kd [7]: 16.8 nM | koff [7]: 0.0231 s⁻¹ | kon [7]: 1.38e+06 M⁻¹ s⁻¹ | Kd [8]: 50 nM | koff [8]: 0.0248 s⁻¹ | kon [8]: 500000 M⁻¹ s⁻¹
